One test concerns the target T1, RIFIN PF3D7_1400600 (Plasmodium falciparum).
T1 construct: also called specific RIFIN
T1 chain: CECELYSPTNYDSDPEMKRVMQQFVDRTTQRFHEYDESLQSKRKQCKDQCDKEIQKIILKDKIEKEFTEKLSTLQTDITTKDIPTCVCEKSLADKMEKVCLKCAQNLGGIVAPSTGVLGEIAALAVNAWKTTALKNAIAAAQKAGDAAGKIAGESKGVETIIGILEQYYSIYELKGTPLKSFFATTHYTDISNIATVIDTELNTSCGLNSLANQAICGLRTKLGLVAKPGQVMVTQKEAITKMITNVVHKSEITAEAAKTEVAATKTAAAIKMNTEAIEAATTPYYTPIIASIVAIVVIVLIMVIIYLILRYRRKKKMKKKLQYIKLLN
The experiment in a line: immunoprecipitation with MGD21, LC-MS.

The target of test [1] is erythrocytes infected with P. falciparum field isolate 9775. In words: flow cytometry, staining of IEs. On the technique in general: A flow cytometer gives signals particle by particle.
The target in test [2] is erythrocytes infected with P. falciparum field isolate 9215. In words: flow cytometry, staining of IEs.
Test [3] has as its target erythrocytes infected with P. falciparum field isolate 9106. In words: flow cytometry, staining of IEs.
Test [4] concerns the target erythrocytes infected with P. falciparum field isolate 11019. In words: flow cytometry, staining of IEs.
The target in test [5] is erythrocytes infected with P. falciparum field isolate 9605. The experiment in a line: flow cytometry, staining of IEs.
Test [6] addresses erythrocytes infected with P. falciparum field isolate 10936. The experiment in a line: flow cytometry, staining of IEs.
For test [7], the target named is erythrocytes infected with P. falciparum field isolate 10975. In words: flow cytometry, staining of IEs.
The target of test [8] is erythrocytes infected with P. falciparum field isolate 11014. The experiment in a line: flow cytometry, staining of IEs.

B1: MGD21 (antibody, IgG1)
VH: EVQLVETGPGLMKTSGTLSLTCAVSGDYVNTNRRWSWVRQAPGKGLEWIGEVHQSGRTNYNPSLKSRVTISVDKSKNQFSLKVDSVTAADTAVYYCARASPLKSQRDTDLPRPSISAEPGTVIPLGSHVTFVCRGPVGVQTFRLERERNYLYSDTEDVSQTSPSESEARFRIDSVNAGNAGLFRCIYYKSRKWSEQSDYLELVVKGEDVTWALSQSQDDPRACPQGELPISTDIYYVDVWGNGTTVTVSS
VL: AIRMTQSPSSLSASPGDKVSITCRASQHINDSLAWFQQRPGKAPKLLIYGASNLHSGVPSRFSGTGSGTDFTLTITGLQSEDFATYFCQQCNCFPPDFGQGTRLEIK
notes: Human mAb of donor D with LAIR-1 exon+intron insert in CDRH3; also called MGD21 ANTIBODY; mAb MGD21
Consider B1, for which, in the test with RIFIN PF3D7_1400600, the “log2 fold change (enrichment in MGD21 immunoprecipitates of 3D7-MGD21+ against 3D7-MGD21- IEs)” value is over 2 log2 fold change.

B2: MGC34 (antibody)
VH: EVQLVESGGGLVQPGGSLRLSCEASGFTFSSYWMSWVRQAPGKGLEWVANINQDGSQKDYVDSVKGRFTISRDTAKNSLYLQMNSLRAEDTAVYYCARERLCTDDSHMHGEEDLPRPSISAEPGTVIPLGSHVTFVCRGPVGIHTFRLERESRSLYTETEDVTQVSPSESEARFRIESVTEGNAGLYRCVYYKPPKWSEQSDYLELLVKGEDVTRALFTHCGGDGKESDYHMDVWGKGTTVTVSS
VL: QTVVTQEPSLTVSPGGTVTLTCASSTGAVTSGYYPSWFHQKPGQPVRALIYSTSKTHSWTPARFSGSLLGGKAALTLSNVQPEDEADYYCLLYYGGPQPWVFGGGTKLTVQ
With B2, the % parasite recognition in [1] worked out at 17.5%; in test [2], 27.1%; in test [3] it was 6.8%; in [4], 34.1%; in test [5], 23.7%; in test [6], 11.3%. Moreover, the % parasite recognition in test [7] came to 15.2%; in [8], 11.4%.

B3: MGC32 (antibody)
VH: EVQLVESGGGLVQPGGSLRLSCVASGFNFRKSWMGWVRQAPGKGLEWVANIREDGSESFYADSVKGRFTVSRDNAKKSLYLHINSLRAEDTAVYYCARDRFCNDDEIHRHGQEDLPRPSISAAEGTVIPLGSHVTFVCRGPVGVQTFRLEKDSRSIYNDTENVSQPSPSESEARFRIDSVSEGNAGLYRCVYYKAPKWSAQSDYLELLVKGQEVTWALFTSCGGDGEEPDYDMDVRGKGTTVTVSS
VL: DILMTQSPDSLAVSLGERATINCKSSQSVLYRSKNKNYLAWFQQKPGQPPKVLIYSTSTRASGVPDRFTGSGSGTDFTLTISSLQAEDVAVYYCLQYYITPYTFGQGTKLEIK
In the case of B3, the % parasite recognition in test [1] came out at 7.9%; in test [2], 13.1%; in test [3], 7.8%; in test [4], 38.1%; in test [5], 22.9%; in test [6], 2.9%. Also, the % parasite recognition stood at 3.2% in test [7] and 4.5% in test [8].

B4: MGC33 (antibody)
VH: EVHLVESGGGLVQPGGSLRLSCEASGFTFSSYWMTWVRQAPGKGLEWVANINQDGSERYYVDSVKGRFTISRDTVKNSLYLQMNNLRAEDTAVYYCARQRFCSDGSLFHGEDLPRPTISAETGTVISLGSHVTFVCRGPLGVQTFRLERESRSRYSETEDVSQVGPSESEARFRIDSVSEGNAGLYRCIYYKPPKWSEQSDYLELRVKGEDVTWALLTYCGGDRDESDYYMDVWGKGTTVTVSS
VL: QTVVTQEPSLTVSPGGTVTLTCASSTGSVTSGSFPNWFQQTPGQAPRSLIYSTTKKHSWTPARFSGSLLGGKAALTVSDTQPEDEAEYYCLLYCGGGQPWVFGGGTKLTVQ
As for B4, the % parasite recognition in [1] was determined as 9.7%; in test [2], 11.5%; in test [3], 7.5%; in [4] it was 23.5%; in test [5] it was 22.3%; in [6] it was 3.6%. In addition, the % parasite recognition came out at 11.5% in test [7] and 2.9% in [8].

The values are drawn from patent US20180186897A1 (INSTITUTE FOR RESEARCH IN BIOMEDICINE, published 2018).
